Target: PPP1CA(2-330), His6-MBP tag cleaved by TEV protease (human, UniProt P62136 2-330)
Assay: SEC

PPP1CA(2-330), His6-MBP tag cleaved by TEV protease, sequence (P62136 2-330): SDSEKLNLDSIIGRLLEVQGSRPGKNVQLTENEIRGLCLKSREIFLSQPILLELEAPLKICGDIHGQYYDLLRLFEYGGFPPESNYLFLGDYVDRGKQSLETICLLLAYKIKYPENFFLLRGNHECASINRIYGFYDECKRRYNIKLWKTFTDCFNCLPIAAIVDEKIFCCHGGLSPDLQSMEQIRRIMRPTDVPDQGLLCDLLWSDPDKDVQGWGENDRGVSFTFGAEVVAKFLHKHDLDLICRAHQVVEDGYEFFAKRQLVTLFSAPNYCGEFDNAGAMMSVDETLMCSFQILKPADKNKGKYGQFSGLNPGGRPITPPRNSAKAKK

B1: SHOC2, native full-length (natural protein, human, UniProt Q9UQ13 1-582, looked up)
chain: MSSSLGKEKDSKEKDPKVPSAKEREKEAKASGGFGKESKEKEPKTKGKDAKDGKKDSSAAQPGVAFSVDNTIKRPNPAPGTRKKSSNAEVIKELNKCREENSMRLDLSKRSIHILPSSIKELTQLTELYLYSNKLQSLPAEVGCLVNLMTLALSENSLTSLPDSLDNLKKLRMLDLRHNKLREIPSVVYRLDSLTTLYLRFNRITTVEKDIKNLSKLSMLSIRENKIKQLPAEIGELCNLITLDVAHNQLEHLPKEIGNCTQITNLDLQHNELLDLPDTIGNLSSLSRLGLRYNRLSAIPRSLAKCSALEELNLENNNISTLPESLLSSLVKLNSLTLARNCFQLYPVGGPSQFSTIYSLNMEHNRINKIPFGIFSRAKVLSKLNMKDNQLTSLPLDFGTWTSMVELNLATNQLTKIPEDVSGLVSLEVLILSNNLLKKLPHGLGNLRKLRELDLEENKLESLPNEIAYLKDLQKLVLTNNQLTTLPRGIGHLTNLTHLGLGENLLTHLPEEIGTLENLEELYLNDNPNLHSLPFELALCSKLSIMSIENCPLSHLPPQIVAGGPSFIIQFLKMQGPYRAMV
  stoichiometry N: 1
